Reference: patent publication JP2023110925A (dated 2023)

Molecular target: T1, アミロイドβ (antigen of the amyloid β ELISA) (UniProt P05067 672-713)
T1 construct: also called Aβ
Experiment: amyloid β ELISA, conditioned medium of transient transfection

T1 sequence (P05067 672-713): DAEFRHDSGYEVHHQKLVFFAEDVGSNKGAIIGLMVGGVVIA

B1: C2 HuVH AF バージョン3 + キメラC2カッパ鎖 (transient) (antibody, name in Kabat numbering, V domains shown)
VH: EVQLVESGGGLVQPGGSLRLSCAASGFTFSSYGMSWVRQAPGKGLELVASINSNGGSTYYPDSVKGRFTISRDNAKNSLYLQMNSLRAEDTAVYYCARGDYWGQGTTVTVSS
VL: DVVMTQTPLSLPVSLGDQASISCRSSQSLVYSNGDTYLHWYLQKPGQSPKLLIYKVSNRFSGVPDRFSGSGSGTDFTLKISRVEAEDLGVYFCSQSTHVPWTFGGGTKLEIK
notes: Transient expression
  binding result: no binding
